In PMC6557989:

Legend:
[1] = biological target: Protein H (Streptococcus pyogenes (strain AP1)); experiment: MST; Monolith NT.115; Alexa-488-labelled Protein H constant at 0.5 nM, C4BP at 16 concentrations; 50 mM Tris-HCl pH 7.4, 150 mM NaCl, 10 mM MgCl2, 0.05% Tween-20; 37°C
Target sequence in this assay (P50470 42-345 limits assumed): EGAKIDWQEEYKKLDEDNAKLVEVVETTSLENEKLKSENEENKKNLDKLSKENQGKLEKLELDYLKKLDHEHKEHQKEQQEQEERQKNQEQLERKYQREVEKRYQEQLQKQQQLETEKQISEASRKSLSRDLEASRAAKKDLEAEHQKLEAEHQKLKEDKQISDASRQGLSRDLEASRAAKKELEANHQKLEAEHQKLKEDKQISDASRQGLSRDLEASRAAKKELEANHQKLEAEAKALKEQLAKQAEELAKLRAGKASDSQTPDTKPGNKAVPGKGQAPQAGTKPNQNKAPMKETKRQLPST

[2] = biological target: Protein H (Streptococcus pyogenes (strain AP1)); experiment: SEC; Superose 6 10/30; 5 nmol Protein H alone at 8°C and 28°C; column calibrated with high molecular weight markers; monomer to dimer
[3] = biological target: C4b-binding protein (C4BP), human, purified from plasma (human) (UniProt P04003); experiment: SEC; Superose 6 10/30, PBS, ambient temperature; 0.25 nmol C4BP with varying amounts of Protein H, pre-incubated 30 min at room temperature; area of the free Protein H peak fitted
Chain of C4b-binding protein (C4BP), human, purified from plasma (human) (P04003 49-597, chain 1 of 2): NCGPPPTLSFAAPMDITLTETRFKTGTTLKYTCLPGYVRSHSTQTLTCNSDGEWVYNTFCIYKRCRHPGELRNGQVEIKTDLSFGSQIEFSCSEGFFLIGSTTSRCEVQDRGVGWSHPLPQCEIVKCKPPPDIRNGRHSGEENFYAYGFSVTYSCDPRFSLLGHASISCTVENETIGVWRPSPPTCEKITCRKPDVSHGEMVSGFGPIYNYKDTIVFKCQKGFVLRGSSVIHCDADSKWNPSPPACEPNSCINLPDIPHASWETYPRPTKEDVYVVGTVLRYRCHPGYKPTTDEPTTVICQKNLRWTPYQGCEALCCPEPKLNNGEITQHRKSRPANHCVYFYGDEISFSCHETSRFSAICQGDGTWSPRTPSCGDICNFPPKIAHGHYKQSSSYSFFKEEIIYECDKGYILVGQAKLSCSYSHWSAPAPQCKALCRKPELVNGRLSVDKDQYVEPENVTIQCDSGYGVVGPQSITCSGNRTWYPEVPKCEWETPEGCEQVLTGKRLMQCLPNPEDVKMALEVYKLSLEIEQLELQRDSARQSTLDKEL
Chain of C4b-binding protein (C4BP), human, purified from plasma (human) (P20851 18-252, chain 2 of 2, further chain): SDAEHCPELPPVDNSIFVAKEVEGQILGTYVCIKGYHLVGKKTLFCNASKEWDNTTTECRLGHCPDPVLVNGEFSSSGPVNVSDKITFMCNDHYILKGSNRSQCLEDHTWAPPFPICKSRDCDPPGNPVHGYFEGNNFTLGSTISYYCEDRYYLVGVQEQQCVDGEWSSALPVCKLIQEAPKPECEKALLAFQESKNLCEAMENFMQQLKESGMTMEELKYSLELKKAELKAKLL

[4] = biological target: Protein H on the surface of Streptococcus pyogenes AP1 (Streptococcus pyogenes (endogenous in strain AP1))

Chain of C4b-binding protein (C4BP), human, purified from plasma (P04003 49-597): as the sequence (P04003 49-597, chain 1 of 2) above
Chain of C4b-binding protein (C4BP), human, purified from plasma (P20851 18-252): as the sequence (P20851 18-252, chain 2 of 2, further chain) above

## C4b-binding protein (C4BP), human, purified from plasma (from UniProt P04003 49-597; P20851 18-252) (complex)
[1]
  Kd: 180 nM

## Protein H (natural protein)
[2]
  stoichiometry N: 2
[3]
  stoichiometry N (Protein H monomers per C4BP): 26

## Protein H on the surface of Streptococcus pyogenes AP1 (natural protein)
[4]
  aggregation of S. pyogenes AP1 grown overnight at 35°C, 37°C or 41°C (OD600 before against after vortexing); at 41°C all bacteria remained dispersed: 70%
